This note sets out measurements from patent US20150351390A1, “COMPOSITIONS AND METHODS FOR AUXIN-ANALOG CONJUGATION” (PIONEER HI-BRED INTERNATIONAL, INC., priority 2012, published 2015).

B1: AIGH3-2: GH3 protein, accession XP_002868993 (protein, listed as Arabidopsis lyrata)
chain: MAVDSPLQSRMVSPTTSEKDVKALKFIEEMTRNPDSVQEKVLGEILSRNSNTEYLKRFDINGAIDRNTFKNKVPVVTYEDLKPEIQRISNGDRSPILSSHPITEFLTSSGTSAGERKLMPTIEEDLDRRQLLYSLLMPVMNLYVPGLDKGKGLYFLFVKSESKTSGGLPARPVLTSYYKSDHFRRRPYDPYNVYTSPNEAILCSDSSQSMYAQMLCGLLMRHEVLRLGAVFASGLLRAISFLQNNWKELARDISTGTLSSRIFDPTIKNRMSKILIKPDQELAEFLIGVCSQENWEGIITKIWPNTKYLDVIVTGAMAQYIPTLEYYSGGLPMACTMYASSESYFGINLKPMCKPSEVSYTIMPNMAYFEFLPHNHDGDGATEASLDETSLVELADVEVGKEYELVITTYAGLYRYRVGDILRVTGFHNSAPQFKFIRRKNVLLSIESDKTDEAELQKAVENASRLFAEQGTRVIEYTSYAETKTIPGHYVIYWELLGRDQSNALPSEEVMAKCCLEMEESLNSVYRQSRVADKSIGPLEIRLVQNGTFEELMDYAISRGASINQYKVPRCVSFTPIMELLDSRVVSAHFSPSLPHWSPERRR
B2: AIGH3-4: GH3 protein, accession XP_002886679 (protein, listed as Arabidopsis lyrata)
chain: MAVDSPLQSRIASPTTSEKDMKALMFIEEMTRNPDSVQEKVLGEILSRNSNTEYLKRFDLNGAVDRKTFKSKVPVVMYEDLKTEIQRISNGDRSPILSSHPINEFLTSSGTSSGERKLMPTIEEDIHRRQLLGSLLMPVMNLYLPGLDKGKGLYFLFVKSESKTSGGLPARPALTSYYKSDHFKTSDLQNDYTSPREAILCSDSSQSMYAQMLCGLLMRHEVLRLGAVFPSGLLRAISFLQNNWKELAQDISTGILSSKIFDPAVNNRMSKILNKPDEELAEFLIGVCSQENWEGIITKIWPNTKYLDVIITGAMAQYIPMLEYYSGGLPIASTIYASSESYFGINLNPMCKPSEVSYTIMPNMAYFEFLPHNHDGDGALDETSLVELADVEVGKEYELVITTYAGLYRYRVGDILCVTGFHNSAPQFKFIRRKNVLLSIESDKTDEADLQKAVDNASRLLAEQGTSVIEYTSYAETKTIPGHYVIYWELLGRDQSNALPSDEVMAKCCLEMEESLNSVYRQSRVSDKSIGPLEIRVVQNGTFDELMDYAISRGSSINQYKVPRCVSLTPILELLDSRVVSAHFSTSLPHWSPERRH
B3: AtGH3-2: GH3 protein, accession AEE86787 (protein, listed as Arabidopsis thaliana)
chain: MAVDSPLQSRMVSATTSEKDVKALKFIEEMTRNPDSVQEKVLGEILTRNSNTEYLKRFDLDGVVDRKTFKSKVPVVTYEDLKPEIQRISNGDCSPILSSHPITEFLTSSGTSAGERKLMPTIEEDLDRRQLLYSLLMPVMNLYVPGLDKGKGLYFLFVKSESKTSGGLPARPVLTSYYKSDHFKRRPYDPYNVYTSPNEAILCSDSSQSMYAQMLCGLLMRHEVLRLGAVFASGLLRAISFLQNNWKELARDISTGTLSSRIFDPAIKNRMSKILTKPDQELAEFLVGVCSQENWEGIITKIWPNTKYLDVIVTGAMAQYIPTLEYYSGGLPMACTMYASSESYFGINLKPMCKPSEVSYTIMPNMAYFEFLPHNHDGDGAAEASLDETSLVELANVEVGKEYELVITTYAGLYRYRVGDILRVTGFHNSAPQFKFIRRKNVLLSVESDKTDEAELQKAVENASRLFAEQGTRVIEYTSYAETKTIPGHYVIYWELLGRDQSNALMSEEVMAKCCLEMEESLNSVYRQSRVADKSIGPLEIRVVRNGTFEELMDYAISRGASINQYKVPRCVSFTPIMELLDSRVVSAHFSPSLPHWSPERRR
B4: AtGH3-1: GH3 protein, accession O82333 (protein, listed as Arabidopsis thaliana)
chain: MAVDSNLSSPLGPPACEKDAKALRFIEEMTRNADTVQENLLAEILARNADTEYLRRFNLCGATDRDTFKTKIPVITYEDLQPEIQRIADGDRSPILSAHPISEFLTSSGTSAGERKLMPTIKEELDRRQLLYSLLMPVMNLYVPGLDKGKGMYFLFVKSETKTPGGLPARPVLTSYYKSEHFRSRPYDPYNVYTSPNEAILCPDSFQSMYTQMLCGLLDRLSVLRVGAVFASGLLRAIRFLQLHWSRFAHDIELGCLDSEITDPSIRQCMSGILKPDPVLAEFIRRECKSDNWEKIITRIWPNTKYLDVIVTGAMAQYIPTLEYYSGGLPMACTMYASSECYFGLNLNPMSKPSEVSYTIMPNMAYFEFIPLGGTKAVELVDVNIGKEYELVVTTYAGLCRYRVGDILRVTGFHNSAPQFHFVRRKNVLLSIDSDKTDESELQKAVENASSILHEECGSRVAEYTSYADTSTIPGHYVLYWELLVRDGARQPSHETLTRCCLGMEESLNSVYRQSRVADNSVGPLEIRVVRNGTFEELMDYAISRGASINQYKVPRCVNFTPIVELLDSRVVSAHFSPSLPHWTPERRRR
B5: AIGH3-3: GH3 protein, accession XP_002880486 (protein, listed as Arabidopsis lyrata)
chain: MTVDLPLRSPMNYSPSDKDVKALRFIEEMIRNVDFVQNKVIREILRRNSETEYLKRFGLKGFTDRKAFKTKVPVVTYDDLKPEIQRIANGDRSMILSSHPITEFLTSSGTSAGERKLMPTIEEDMDRRQLLYSLLMPVMNLYVPGLDKGKALYFLFVKTESKTPGGLPARPVLTSYYKSEQFKRRPYDPYNVYTSPNEAILCPDSSQSMYTQMLCGLLMRHEVLRLGAVFASGLLRAIGFLQTNWKELANDISTGTLSSRISDPAIKESMSKILTKPDQELADFITSVCGQDNNWEGIITKIWPNTKYLDVIVTGAMAQYIPMLEYYSGGLPMACTMYASSESYFGINLKPMCKPSEVSYTIMPNMAYFEFLPHEVPTGKSELVELADVEVGKEYELVITTYAGLNRYRVGDILQVTGFYNSAPQFKFVRRKNVLLSIESDKTDEAELQKAVENASVLLGEQGNRVIEYTSYAETKTIPGHYVIYWELLVKDQTNPPNDEVMARCCLEMEESLNSVYRQSRVADKSIGPLEIRVVKNGTFEELMDYAISRGASINQYKVPRCVSFTPIMELLDSRVVSTHFSPALPHWSPERRC
B6: AIGH3-5: GH3 protein, accession XP_002869571 (protein, listed as Arabidopsis lyrata)
chain: MPEAPKKVSLEVFDLTLDQKNKQKLQLIEELTSNADQFQRRVLEEILSRNADVEYLRRHYLNGRTDRETFKNVMPVITYEDIQPEINRIANGDKSPILSSKPISEFLTSSGTSGGERKLMPTIEEELDRRSLLYSLLMPVMSQFVPGLENGKGMYFLFIKSESKTPGGLPARPVLTSYYKSSHFKERPYDPYTNYTSPNETILCSDSYQSMYSQMLCGLCQHQEVLRVGAVFASGFIRAIKFLEKHWTELVRDIRTGTLSSLITDPSVREAVSKILKPNSKLAEFVEFECKKSSWQGIITRLWPNTKYVDVIVTGTMSQYIPTLDYYSNGLPLVCTMYASSECYFGVNLRPLCKPSEVSYTLIPSMAYFEFLPVHRNNGVTNSINLPKALTEKEQQELVDLVDVKLGQEYELVVTTYAGLCRYRVGDLLRVTGFKNKAPQFSFICRKNVVLSIDADKTDEVELQNAVKNAVTYLVPFDASLSEYTSYADTSSIPGHYVLFWELCLDGNTPIPPSVFEDCCLTVEESFNTVYRQGRVSDKSIGPLEIKIVEPGTFDKLMDYAISLGASINQYKTPRCVKFAPIIELLNSRVVNSYLSPKCPKWVPGHKQWGSN
B7: AIGH3-6: GH3 protein, accession XP_002866046 (protein, listed as Arabidopsis lyrata)
chain: MPEAPKIVALEVSDESLAEKNKNKLQFIEDVTTNADDVQRRVLEEILSRNADVEYLKRHGLDGRTDRETFKHVMPVVTYEDIQPEINRIANGDKSQILCSNPISEFLTSSGTSGGERKLMPTIEEELDRRSLLYSLLMPVMNQFVPGLDKGKGMYFLFIKSESKTPGGLPARPVLTSYYKSSHFKNRPFDPYNNYTSPNQTILCSDSYQSMYSQMLCGLCQHKEVLRVGAVFASGFIRAIKFLEKHWSELARDIRTGTLSSEITDLSVREAVGEILKPDPKLADFVESECRKTSWQGIITRLWPNTKYVDVIVTGTMSQYIPTLDYYSNGLPLVCTMYASSECYFGVNLRPLCKPSEVSYTLIPNMAYFEFLPVHRNSGVTSSISLPKALTEKEQQELVDLVDVKLGQEYELVVTTYAGLYRYRVGDVLSVAGFKNNAPQFSFICRKNVALSIDSDKTDEVELQNAVKNAVTHLVPFDASLSEYTSYAETSSIPGHYVLFWELCLNGNTPIPPSVFEDCCLTIEESLNSVYRQGRVSDKSIGPLEIKMVESGTFDKLMDYAISLGASINQYKTPRCVKFAPIIELLNSRVVDSYFSPKCPKWAPGHKQWGSN

The first data set is described as follows: LC-MS assay of GH3 conjugation of IAA with Asp or Glu. Format: biochemical. The settings on record: conjugation of IAA with Asp by recombinant GH3 protein; IAA-Asp product by LC-MS. The essentials: (§1)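 N-terminal His-tagged GH3 homologs, expressed in E. coli C41(DE3) and Ni-NTA purified, at 44 to 164 μg/mL incubated 3 h at 30 °C in 20 mM Tris-HCl pH 8.0, 5 mM MgCl2, 1 mM DTT, 5 mM ATP, 5 mM auxin (IAA, 2,4-D or dicamba) and 5 mM Asp or Glu. Conjugates quantified by LC-MS against standards after MeOH precipitation; kinetics from Michaelis-Menten fits of initial velocities.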
With B1, the “kcat (hrs−1) IAA-Asp” value was found to be 583.500 h⁻¹.

Consider B2, for which the “kcat (hrs−1) IAA-Asp” value amounted to 3.013 h⁻¹.

As for B3, the “kcat (hrs−1) IAA-Asp” value turned out to be 511.761 h⁻¹.

Turning to B4, the “kcat (hrs−1) IAA-Asp” value was found to be 437.707 h⁻¹.

For the molecule B5, the “kcat (hrs−1) IAA-Asp” value turned out to be 3315.262 h⁻¹.

In the case of B6, the “kcat (hrs−1) IAA-Asp” value was 429.073 h⁻¹.

As to B7, the “kcat (hrs−1) IAA-Asp” value turned out to be 413.293 h⁻¹.

The same data set, now with this note: conjugation of IAA with Glu by recombinant GH3 protein; IAA-Glu product by LC-MS.
For the molecule B1, the “kcat (hrs−1) IAA-Glu” value is 13.953 h⁻¹.

Consider B2, for which the “kcat (hrs−1) IAA-Glu” value was determined as 0.000 h⁻¹.

As to B3, the “kcat (hrs−1) IAA-Glu” value was found to be 30.640 h⁻¹.

On to B4, for which the “kcat (hrs−1) IAA-Glu” value worked out at 19.230 h⁻¹.

In the case of B5, the “kcat (hrs−1) IAA-Glu” value amounted to 71.865 h⁻¹.

As for B6, the “kcat (hrs−1) IAA-Glu” value amounted to 24.704 h⁻¹.

On to B7, for which the “kcat (hrs−1) IAA-Glu” value came to 20.881 h⁻¹.

Another data set can be described thus: LC-MS assay of GH3 conjugation of 2,4-D with Asp or Glu. The settings on record: conjugation of 2,4-D with Asp by recombinant GH3 protein; 2,4-D-Asp product by LC-MS; 5 mM 2,4-D substrate. It is filed as biochemical. The essentials:
as §1
In the case of B1, the “kcat (hrs−1) 2,4-D-Asp” value came to 1.903 h⁻¹.

On to B2, for which the “kcat (hrs−1) 2,4-D-Asp” value amounted to 0.040 h⁻¹.

Regarding B3, the “kcat (hrs−1) 2,4-D-Asp” value came to 1.200 h⁻¹.

Take B4: the “kcat (hrs−1) 2,4-D-Asp” value is 1.188 h⁻¹.

With B5, the “kcat (hrs−1) 2,4-D-Asp” value was found to be 1.566 h⁻¹.

As for B6, the “kcat (hrs−1) 2,4-D-Asp” value worked out at 1.586 h⁻¹.

Turning to B7, the “kcat (hrs−1) 2,4-D-Asp” value stood at 1.300 h⁻¹.

Still in this data set, the particulars now being: conjugation of 2,4-D with Glu by recombinant GH3 protein; 2,4-D-Glu product by LC-MS; 5 mM 2,4-D substrate.
As for B1, the “kcat (hrs−1) 2,4-D-Glu” value came out at 0.309 h⁻¹.

On to B2, for which the “kcat (hrs−1) 2,4-D-Glu” value is 0.006 h⁻¹.

For the molecule B3, the “kcat (hrs−1) 2,4-D-Glu” value came to 0.131 h⁻¹.

In the case of B4, the “kcat (hrs−1) 2,4-D-Glu” value was 0.136 h⁻¹.

As for B5, the “kcat (hrs−1) 2,4-D-Glu” value is 0.172 h⁻¹.

Consider B6, for which the “kcat (hrs−1) 2,4-D-Glu” value turned out to be 0.421 h⁻¹.

As for B7, the “kcat (hrs−1) 2,4-D-Glu” value came to 0.211 h⁻¹.
